Reference: article PMC7614968

Target: SteD (untagged, HIS tag cleaved) (Salmonella enterica serovar Typhimurium (14028s))
Test: SEC-MALS; co-purified untagged SteD-SrcA complex at 8 mg/ml on analytical Superdex200 in the dialysis buffer (20 mM phosphate pH 6.8, 150 mM NaCl, 5 % glycerol, 1 mM DTT), 0.4 ml/min

In the case of “SrcA (untagged, recombinant) (natural protein)”, the stoichiometry N (SrcA molecules per SteD molecule) is reported as 2.
